Data reported in PMC12416549 (2024).
Substitutions are numbered along the chain they refer to. Numbers in names are those of the source.

T1: TNFR1 (Homo sapiens, UniProt P19438)
T1 chain: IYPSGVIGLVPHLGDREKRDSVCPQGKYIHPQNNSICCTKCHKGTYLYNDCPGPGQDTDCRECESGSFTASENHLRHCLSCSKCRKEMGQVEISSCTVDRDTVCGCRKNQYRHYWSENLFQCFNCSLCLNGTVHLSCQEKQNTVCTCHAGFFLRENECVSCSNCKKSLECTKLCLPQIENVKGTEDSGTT

B1: Y70E (designed binder)
chain: SMEEEVEKAAKEYEKKKKEAIEKHLEKLKAKDKEAAERFLKELEEAAKEYAKDEAKTMSEEEAKRRAKKEKEKVLLSELSEEEQKEIKEAEEKLVRTILKYVEEAAK
B2: E92H (designed binder)
chain: B1 chain with E70Y, E92H
B3: E4T (designed binder)
chain: B1 chain with E4T, E70Y
B4: S80G (designed binder)
chain: B1 chain with E70Y, S80G
B5: A9Q (designed binder)
chain: B1 chain with A9Q, E70Y
B6: K31A (designed binder)
chain: B1 chain with K31A, E70Y
B7: A36V (designed binder)
chain: B1 chain with A36V, E70Y
B8: L28I (designed binder)
chain: B1 chain with L28I, E70Y
B9: R96K (designed binder)
chain: B1 chain with E70Y, R96K
B10: D32Y (designed binder)
chain: B1 chain with D32Y, E70Y
B11: E78I (designed binder)
chain: B1 chain with E70Y, E78I
B12: S59T (designed binder)
chain: B1 chain with S59T, E70Y
B13: Q84G (designed binder)
chain: B1 chain with E70Y, Q84G
B14: D53F (designed binder)
chain: B1 chain with D53F, E70Y
B15: A90P (designed binder)
chain: B1 chain with E70Y, A90P
B16: Y70K (designed binder)
chain: B1 chain with E70K
B17: V6I (designed binder)
chain: B1 chain with V6I, E70Y
B18: L40A (designed binder)
chain: B1 chain with L40A, E70Y
B19: L28Q (designed binder)
chain: B1 chain with L28Q, E70Y
B20: S59F (designed binder)
chain: B1 chain with S59F, E70Y
B21: A63H (designed binder)
chain: B1 chain with A63H, E70Y
B22: E62W (designed binder)
chain: B1 chain with E62W, E70Y
B23: K18L (designed binder)
chain: B1 chain with K18L, E70Y
B24: E42A (designed binder)
chain: B1 chain with E42A, E70Y
B25: K8N (designed binder)
chain: B1 chain with K8N, E70Y
B26: A10T (designed binder)
chain: B1 chain with A10T, E70Y
B27: E89Y (designed binder)
chain: B1 chain with E70Y, E89Y
B28: A9M (designed binder)
chain: B1 chain with A9M, E70Y
B29: K52H (designed binder)
chain: B1 chain with K52H, E70Y
B30: H24Y (designed binder)
chain: B1 chain with H24Y, E70Y
B31: K33Q (designed binder)
chain: B1 chain with K33Q, E70Y
B32: S77A (designed binder)
chain: B1 chain with E70Y, S77A
B33: E4H (designed binder)
chain: B1 chain with E4H, E70Y
B34: E62Q (designed binder)
chain: B1 chain with E62Q, E70Y
B35: A106S (designed binder)
chain: B1 chain with E70Y, A106S
B36: I87F (designed binder)
chain: B1 chain with E70Y, I87F
B37: E78H (designed binder)
chain: B1 chain with E70Y, E78H
B38: E81V (designed binder)
chain: B1 chain with E70Y, E81V
B39: K69E (designed binder)
chain: B1 chain with K69E, E70Y
B40: E3D (designed binder)
chain: B1 chain with E3D, E70Y
B41: E89F (designed binder)
chain: B1 chain with E70Y, E89F
B42: E103T (designed binder)
chain: B1 chain with E70Y, E103T
B43: M58V (designed binder)
chain: B1 chain with M58V, E70Y
B44: A55Y (designed binder)
chain: B1 chain with A55Y, E70Y
B45: K52E (designed binder)
chain: B1 chain with K52E, E70Y
B46: S80D (designed binder)
chain: B1 chain with E70Y, S80D
B47: I21W (designed binder)
chain: B1 chain with I21W, E70Y
B48: K17F (designed binder)
chain: B1 chain with K17F, E70Y
B49: V95M (designed binder)
chain: B1 chain with E70Y, V95M
B50: E60L (designed binder)
chain: B1 chain with E60L, E70Y
B51: E22A (designed binder)
chain: B1 chain with E22A, E70Y
B52: E86Y (designed binder)
chain: B1 chain with E70Y, E86Y
B53: K31W (designed binder)
chain: B1 chain with K31W, E70Y
B54: L75H (designed binder)
chain: B1 chain with E70Y, L75H
B55: E72R (designed binder)
chain: B1 chain with E70Y, E72R

Target: T1, TNFR1
Assay: yeast display SC50

Which “apparent Kd (screen)” value does the source give for B1 here?
The value was 0.718 nM.

For B2, which “apparent Kd (screen)” value is on record?
The value was 3 nM.

B3 was tested. Which “apparent Kd (screen)” value did it give?
The value was 0.446 nM.

For B4, which “apparent Kd (screen)” value is on record?
The value was 2.48 nM.

How did the “apparent Kd (screen)” value turn out when B5 was run?
Its value is 0.446 nM.

With B6 as the binder, how does the “apparent Kd (screen)” value read?
The value was 0.718 nM.

For B7, which “apparent Kd (screen)” value is on record?
Its value is 0.446 nM.

For B8, which “apparent Kd (screen)” value is on record?
The value was 1.86 nM.

B9 was tested. Which “apparent Kd (screen)” value did it give?
Its value is 0.718 nM.

B10 was tested. Which “apparent Kd (screen)” value did it give?
Its value is 13.8 nM.

How did the “apparent Kd (screen)” value turn out when B11 was run?
The value was 0.49 nM.

For B12, which “apparent Kd (screen)” value is on record?
The value was 1.54 nM.

With B13 as the binder, how does the “apparent Kd (screen)” value read?
The value was 12.5 nM.

How did the “apparent Kd (screen)” value turn out when B14 was run?
The value was 2.48 nM.

For B15, which “apparent Kd (screen)” value is on record?
The value was 26.9 nM.

For B16, which “apparent Kd (screen)” value is on record?
Its value is 0.446 nM.

With B17 as the binder, how does the “apparent Kd (screen)” value read?
Its value is 0.49 nM.

How did the “apparent Kd (screen)” value turn out when B18 was run?
Its value is 0.446 nM.

With B19 as the binder, how does the “apparent Kd (screen)” value read?
Its value is 0.539 nM.

Which “apparent Kd (screen)” value does the source give for B20 here?
Its value is 7.07 nM.

How did the “apparent Kd (screen)” value turn out when B21 was run?
The value was 4.39 nM.

How did the “apparent Kd (screen)” value turn out when B22 was run?
Its value is 0.956 nM.

For B23, which “apparent Kd (screen)” value is on record?
Its value is 1.69 nM.

With B24 as the binder, how does the “apparent Kd (screen)” value read?
The value was 10.4 nM.

For B25, which “apparent Kd (screen)” value is on record?
The value was 0.718 nM.

Which “apparent Kd (screen)” value does the source give for B26 here?
Its value is 0.446 nM.

For B27, which “apparent Kd (screen)” value is on record?
Its value is 2.25 nM.

With B28 as the binder, how does the “apparent Kd (screen)” value read?
Its value is 0.446 nM.

Which “apparent Kd (screen)” value does the source give for B29 here?
The value was 0.956 nM.

Which “apparent Kd (screen)” value does the source give for B30 here?
The value was 1.69 nM.

With B31 as the binder, how does the “apparent Kd (screen)” value read?
The value was 0.869 nM.

For B32, which “apparent Kd (screen)” value is on record?
Its value is 0.49 nM.

B33 was tested. Which “apparent Kd (screen)” value did it give?
Its value is 1.4 nM.

Which “apparent Kd (screen)” value does the source give for B34 here?
The value was 0.79 nM.

How did the “apparent Kd (screen)” value turn out when B35 was run?
The value was 0.79 nM.

B36 was tested. Which “apparent Kd (screen)” value did it give?
The value was 5.84 nM.

How did the “apparent Kd (screen)” value turn out when B37 was run?
The value was 0.49 nM.

Which “apparent Kd (screen)” value does the source give for B38 here?
The value was 0.446 nM.

How did the “apparent Kd (screen)” value turn out when B39 was run?
The value was 0.593 nM.

For B40, which “apparent Kd (screen)” value is on record?
Its value is 2.48 nM.

For B41, which “apparent Kd (screen)” value is on record?
Its value is 1.86 nM.

For B42, which “apparent Kd (screen)” value is on record?
Its value is 0.718 nM.

With B43 as the binder, how does the “apparent Kd (screen)” value read?
Its value is 2.25 nM.

Which “apparent Kd (screen)” value does the source give for B44 here?
The value was 10.4 nM.

Which “apparent Kd (screen)” value does the source give for B45 here?
Its value is 0.446 nM.

For B46, which “apparent Kd (screen)” value is on record?
Its value is 1.4 nM.

Which “apparent Kd (screen)” value does the source give for B47 here?
Its value is 0.49 nM.

Which “apparent Kd (screen)” value does the source give for B48 here?
Its value is 0.446 nM.

For B49, which “apparent Kd (screen)” value is on record?
The value was 10.4 nM.

Which “apparent Kd (screen)” value does the source give for B50 here?
The value was 0.446 nM.

B51 was tested. Which “apparent Kd (screen)” value did it give?
Its value is 0.539 nM.

Which “apparent Kd (screen)” value does the source give for B52 here?
Its value is 1.4 nM.

Which “apparent Kd (screen)” value does the source give for B53 here?
Its value is 0.79 nM.

Which “apparent Kd (screen)” value does the source give for B54 here?
Its value is 1.69 nM.

Which “apparent Kd (screen)” value does the source give for B55 here?
Its value is 7.07 nM.
